Data reported in the supplement of paper PMC11246515.
± gives the standard deviation of the averaged measurements.

Assay: total protein half-life in vivo (active degradation + dilution); higher = more stable protein
[1] = E. coli NCM3722 delta-hslV, growth: N-lim chemostat, doubling time 6 h
[2] = E. coli NCM3722 delta-lon, growth: N-lim chemostat, doubling time 6 h
[3] = E. coli NCM3722 delta-smpB, growth: N-lim chemostat, doubling time 6 h
[4] = wild type E. coli NCM3722, growth: C-lim chemostat, doubling time 3 h
[5] = wild type E. coli NCM3722, growth: C-lim chemostat, doubling time 6 h
[6] = wild type E. coli NCM3722, growth: C-lim chemostat, doubling time 12 h
[7] = wild type E. coli NCM3722, growth: P-lim chemostat, doubling time 6 h
[8] = wild type E. coli NCM3722, growth: P-lim chemostat, doubling time 12 h
[9] = E. coli NCM3722 delta-clpP delta-lon delta-hslV, growth: N-lim chemostat, doubling time 6 h
[10] = E. coli NCM3722 delta-clpP, growth: N-lim chemostat, doubling time 6 h
[11] = wild type E. coli NCM3722, growth: N-lim chemostat, doubling time 6 h
[12] = wild type E. coli NCM3722, growth: N-lim chemostat, doubling time 12 h

Sequence | total protein half-life in vivo [1] | total protein half-life in vivo [2] | total protein half-life in vivo [3] | total protein half-life in vivo [4] | total protein half-life in vivo [5] | total protein half-life in vivo [6] | total protein half-life in vivo [7] | total protein half-life in vivo [8] | total protein half-life in vivo [9] | total protein half-life in vivo [10] | total protein half-life in vivo [11] | total protein half-life in vivo [12]
MTEFTTLLQQGNAWFFIPSAILLGALHGLEPGHSKTMMAAFIIAIKGTIKQAVMLGLAATISHTAVVWLIAFGGMVISKRFTAQSAEPWLQLISAVIIISTAFWMFWRTWRGERNWLENMHGHDYEHHHHDHEHHHDHGHHHHHEHGEYQDAHARAHANDIKRRFDGREVTNWQILLFGLTGGLIPCPAAITVLLICIQLKALTLGATLVVSFSIGLALTLVTVGVGAAISVQQVAKRWSGFNTLAKRAPYFSSLLIGLVGVYMGVHGFMGIMR | 4.77 h | 4.13 h | 5.43 ± 0.75 h | > 4 h | 5.864 ± 0.02 h | 10.8 h | 5.97 h | 11.6 h | – | – | – | –
MTDKTIAFSLLDLAPIPEGSSAREAFSHSLDLARLAEKRGYHRYWLAEHHNMTGIASAATSVLIGYLAANTTTLHLGSGGVMLPNHSPLVIAEQFGTLNTLYPGRIDLGLGRAPGSDQRTMMALRRHMSGDIDNFPRDVAELVDWFDARDPNPHVRPVPGYGEKIPVWLLGSSLYSAQLAAQLGLPFAFASHFAPDMLFQALHLYRSNFKPSARLEKPYAMVCINIIAADSNRDAEFLFTSMQQAFVKLRRGETGQLPPPIQNMDQFWSPSEQYGVQQALSMSLVGDKAKVRHGLQSILRETDADEIMVNGQIFDHQARLHSFELAMDVKEELLG [P0ADV5] | 5.06 ± 1.8 h | 3.94 ± 0.19 h | 3.55 ± 0.21 h | 3.07 ± 0.28 h | – | – | 6.06 ± 0.55 h | 11.1 ± 0.18 h | 4.46 ± 0.36 h | 4.24 ± 0.94 h | 4.47 ± 1.3 h | 5.76 ± 1.3 h
MSSHPYVTQQNTPLADDTTLMSTTDLQSYITHANDTFVQVSGYTLQELQGQPHNMVRHPDMPKAAFADMWFTLKKGEPWSGIVKNRRKNGDHYWVRANAVPMVREGKISGYMSIRTRATDEEIAAVEPLYKALNAGRTSKRIHKGLVVRKGWLGKLPSLPLRWRARGVMTLMFILLAAMLWFVAAPVVTYILCALVVLLASACFEWQIVRPIENVAHQALKVATGERNSVEHLNRSDELGLTLRAVGQLGLMCRWLINDVSSQVSSVRNGSETLAKGTDELNEHTQQTVDNVQQTVATMNQMAASVKQNSATASAADKLSITASNAAVQGGEAMTTVIKTMDDIADSTQRIGTITSLINDIAFQTNILALNAAVEAARAGEQGKGFAVVAGEVRHLASRSANAANDIRKLIDASADKVQSGSQQVHAAGRTMEDIVAQVKNVTQLIAQISHSTLEQADGLSSLTRAVDELNLITQKNAELVEESAQVSAMVKHRASRLEDAVTVLH | – | – | – | 2.72 ± 0.7 h | – | – | – | – | – | – | – | –
MQSVTPTSQYLKALNEGSHQPDDVQKEAVSRLEIIYQELINSTPPAPRTSGLMARVGKLWGKREDTKHTPVRGLYMWGGVGRGKTWLMDLFYQSLPGERKQRLHFHRFMLRVHEELTALQGQTDPLEIIADRFKAETDVLCFDEFFVSDITDAMLLGGLMKALFARGITLVATSNIPPDELYRNGLQRARFLPAIDAIKQHCDVMNVDAGVDYRLRTLTQAHLWLSPLHDETRAQMDKLWLALAGGKRENSPTLEINHRPLATMGVENQTLAVSFTTLCVDARSQHDYIALSRLFHTVMLFDVPVMTRLMESEARRFIALVDEFYERHVKLVVSAEVPLYEIYQGDRLKFEFQRCLSRLQEMQSEEYLKREHLAG | 3.35 ± 0.15 h | 2.58 h | 3.103 ± 0.03 h | 2.72 ± 0.05 h | 5.71 ± 0.58 h | 9.73 ± 1.3 h | 5.25 ± 0.66 h | 9.34 ± 1.1 h | 3.66 ± 0.54 h | 2.97 ± 0.16 h | 3.4 ± 0.15 h | 5.55 ± 0.15 h
MTNPLLTPFELPPFSKILPEHVVPAVTKALNDCRENVERVVAQGAPYTWENLCQPLAEVDDVLGRIFSPVSHLNSVKNSPELREAYEQTLPLLSEYSTWVGQHEGLYKAYRDLRDGDHYATLNTAQKKAVDNALRDFELSGIGLPKEKQQRYGEIATRLSELGNQYSNNVLDATMGWTKLVTDEAELAGMPESALAAAKAQAEAKELEGYLLTLDIPSYLPVMTYCDNQALREEMYRAYSTRASDQGPNAGKWDNSKVMEEILALRHELAQLLGFENYAFKSLATKMAENPQQVLDFLTDLAKRARPQGEKELAQLRAFAKAEFGVDELQPWDIAYYSEKQKQHLYSISDEQLRPYFPENKAVNGLFEVVKRIYGITAKERKDVDVWHPDVRFFELYDENNELRGSFYLDLYARENKRGGAWMDDCVGQMRKADGSLQKPVAYLTCNFNRPVNGKPALFTHDEVITLFHEFGHGLHHMLTRIETAGVSGISGVPWDAVELPSQFMENWCWEPEALAFISGHYETGEPLPKELLDKMLAAKNYQAALFILRQLEFGLFDFRLHAEFRPDQGAKILETLAEIKKLVAVVPSPSWGRFPHAFSHIFAGGYAAGYYSYLWADVLAADAFSRFEEEGIFNRETGQSFLDNILSRGGSEEPMDLFKRFRGREPQLDAMLEHYGIKG | 4.03 ± 0.15 h | 3.74 ± 0.18 h | 3.55 ± 0.062 h | 2.795 ± 0.023 h | 5.17 ± 0.21 h | 8.7 ± 0.94 h | 5.1797 ± 0.00065 h | 9.96 ± 1.1 h | 4.42 ± 0.21 h | 4.18 ± 0.052 h | 3.68 ± 0.23 h | 5.67 ± 0.55 h
MKKWLLAAGLGLALATSAQAADKIAIVNMGSLFQQVAQKTGVSNTLENEFKGRASELQRMETDLQAKMKKLQSMKAGSDRTKLEKDVMAQRQTFAQKAQAFEQDRARRSNEERGKLVTRIQTAVKSVANSQDIDLVVDANAVAYNSSDVKDITADVLKQVK [P0AEU7] | 6.97 ± 1 h | 6.66 ± 0.53 h | 6.63 ± 0.26 h | 3.15 ± 0.35 h | 6 ± 0.15 h | 10.3 ± 0.22 h | 6.79 ± 1 h | 13.7 ± 0.66 h | 7.77 ± 0.22 h | – | 5.62 ± 0.57 h | 13.4 ± 1.8 h
METLIAISRWLAKQHVVTWCVQQEGELWCANAFYLFDAQKVAFYILTEEKTRHAQMSGPQAAVAGTVNGQPKTVALIRGVQFKGEIRRLEGEESDLARKAYNRRFPVARMLSAPVWEIRLDEIKFTDNTLGFGKKMIWLRDSGTEQA | – | – | 4.81 ± 0.52 h | – | 6.11 ± 0.22 h | 13.5 ± 1.2 h | 5.48 ± 1.1 h | 12.5 ± 0.68 h | 5.46 ± 0.32 h | 5.48 ± 0.64 h | 5.11 ± 0.18 h | 9.39 ± 0.75 h
